Assay results reported in publication PMC3518449 (The Biochemical journal, 2012).
Several values for one entry are separate records, joined by “and”; a condition that tells them apart may be missing. Equal entries are not always repeated.

How the values were obtained:
[1] = target: the molecule itself; test: cross-linking
[2] = target: T1, CYP1A2 (Oryctolagus cuniculus, UniProt P00187); test: enzyme activity titration
T1 chain: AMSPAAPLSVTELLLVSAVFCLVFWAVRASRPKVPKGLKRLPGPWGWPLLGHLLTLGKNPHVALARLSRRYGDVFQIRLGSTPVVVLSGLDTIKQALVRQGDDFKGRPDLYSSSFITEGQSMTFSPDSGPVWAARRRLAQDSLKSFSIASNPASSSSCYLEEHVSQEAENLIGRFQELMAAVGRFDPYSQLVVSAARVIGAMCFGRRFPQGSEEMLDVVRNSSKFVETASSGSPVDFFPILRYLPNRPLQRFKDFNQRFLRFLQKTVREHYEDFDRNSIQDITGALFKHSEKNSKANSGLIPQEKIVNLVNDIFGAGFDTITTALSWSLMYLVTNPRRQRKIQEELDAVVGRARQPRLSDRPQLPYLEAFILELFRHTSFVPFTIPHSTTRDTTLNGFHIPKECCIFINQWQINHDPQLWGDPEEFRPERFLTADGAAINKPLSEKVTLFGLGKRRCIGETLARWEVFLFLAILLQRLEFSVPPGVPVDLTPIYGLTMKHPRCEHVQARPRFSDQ

B1: Cytochrome P450 1A2 (CYP1A2), isolated from rabbit liver microsomes (enzyme, UniProt P00187 1-516, looked up)
chain: MAMSPAAPLSVTELLLVSAVFCLVFWAVRASRPKVPKGLKRLPGPWGWPLLGHLLTLGKNPHVALARLSRRYGDVFQIRLGSTPVVVLSGLDTIKQALVRQGDDFKGRPDLYSSSFITEGQSMTFSPDSGPVWAARRRLAQDSLKSFSIASNPASSSSCYLEEHVSQEAENLIGRFQELMAAVGRFDPYSQLVVSAARVIGAMCFGRRFPQGSEEMLDVVRNSSKFVETASSGSPVDFFPILRYLPNRPLQRFKDFNQRFLRFLQKTVREHYEDFDRNSIQDITGALFKHSEKNSKANSGLIPQEKIVNLVNDIFGAGFDTITTALSWSLMYLVTNPRRQRKIQEELDAVVGRARQPRLSDRPQLPYLEAFILELFRHTSFVPFTIPHSTTRDTTLNGFHIPKECCIFINQWQINHDPQLWGDPEEFRPERFLTADGAAINKPLSEKVTLFGLGKRRCIGETLARWEVFLFLAILLQRLEFSVPPGVPVDLTPIYGLTMKHPRCEHVQARPRFSDQ
With B1 the “stoichiometry N” value [1] was 2 and 4 and 5 and 6.

B2: POR (protein)
chain: MADSHGDTGATMPEAAAQEASVFSMTDVVLFSLIVGLITYWFLFRKKKEEVPEFTKIQAPTSSSVKESSFVEKMKKTGRNIVVFYGSQTGTAEEFANRLSKDAHRYGMRGMAADPEEYDLADLSSLPEINNALAVFCMATYGEGDPTDNAQDFYDWLQETDVDLSGVKYAVFGLGNKTYEHFNAMGKYVDQRLEQLGAQRIFELGMGDDDANLEEDFITWREQFWPAVCEHFGVEATGEESSIRQYELVLHTDIDVAKVYQGEMGRLKSYENQKPPFDAKNPFLATVTTNRKLNQGTERHLMHLELDISDSKIRYESGDHVAVYPANDSALVNQLGEILGADLDVVMSLNNLDEESNKKHPFPCPTSYRTALTYYLDITNPPRTNVLYELAQYAADPAEQEQLRKMASSSGEGKELYLSWVVEARRHILAILQDYPSLRPPIDHLCELLPRLQARYYSIASSSKVHPNSVHICAVAVEYETKAGRLNKGVATSWLRAKEPAGENGGRALVPMFVRKSQFRLPFKATTPVIMVGPGTGVAPFIGFIQERAWLRQQGKEVGETLLYYGCRRAAEDYLYREELAGFQKDGTLSQLNVAFSREQAQKVYVQHLLRRDKEHLWRLIHEGGAHIYVCGDARNMARDVQNTFYDIVAELGAMEHAQAVDYVKKLMTKGRYSLDVWS
B2 was tested, and the Kd [2] was 12 nM.
